Test system: G. orontii MGH1
Assay: Spray-induced gene silencing (SIGS), G. orontii spore production on A. thaliana (whole plant and detached leaf assays)
Assay type: in vivo, Golovinomyces orontii
Details: for effect on spore production: long dsRNA; for effect on spore production / average reduction in spore production: vs buffer control
[1] = A. thaliana detached leaf assay
[2] = topical dsRNA against G. orontii target (Gor Seq ID), n>=3

| Molecule | average reduction in spore production [1] [%] | average reduction in spore production (A. thaliana whole plant assay) [%] | other results |
| --- | --- | --- | --- |
| OEC70 dsRNA: long dsRNA against G. orontii effector candidate 70 (target SEQ ID NO:123) (nucleic acid, misc_feature 1..233: note = Inhibitory double stranded RNA; listed as RNA) ACAGAGACCGTAACCGTAACTGTCTGTGCACCATCTGCCTCTGCCCATCCCTCTTCGGGATATGCTATGCCATCAGTCTATCCGGCACCAGTTTCATCAGACCCTGCCAGTCCTGCATACCCGCCAAGCGCTTCTGGTGGCTACTCCTCTCCACCACCAAACCAAACTCCAGCACCATTCACCGGCGCCGCTTCAGCAAACGCAGCTCAGGTAGTATCAGCCATTATTGCTGC |  |  | effect on spore production (A. thaliana whole plant assay): significantly reduced spore production |
| CYP51 dsRNA-1: long dsRNA targeting G. orontii MGH1 CYP51 (target SEQ ID NO:85); link to SEQ ID NO:212 likely (nucleic acid, misc_feature 1..199: note = Inhibitory double stranded RNA; listed as RNA) TACGTGAAGAAGTGTCCCAGCTTCAAAGGACAAAAAGGCACCGTTAATATAACTGAAGTTATGGCTGAAATCACTATCTACACTGCTTCGCATACTCTACAAGGAAAACAGGTTCGTGACAGGTTTGATTCCTCTTTTGCCGCTCTCTATCATGACCTCGATATGGGGTTCACCCCAATTAATTTTGTGCTGCATTGGG | 30 | 46 | visual powdery mildew coverage and density (A. thaliana plants, 9 days post infection, vs buffer control-sprayed plants): less powdery mildew coverage and density |
| LIPA dsRNA: long dsRNA against G. orontii TAG lipase A (target SEQ ID NO:2) (nucleic acid, misc_feature 1..278: note = Inhibitory double stranded RNA; listed as RNA) CTCTTACGCTCATTCTCACGTATATTTCATCGTCGAAAAGGAAGTAGGCCAGAAAGACATATGCACTCTAACATTGAATGTACGAACTGCACTGTTCATATGGGATTTTGGACAAGCTACCAACAAATACGTCCTCATTTATTCTCCAAGATTAGTAGCCTTCGAAAAAAATTCCCTAACTATCGATTGGATTTAGTCGGACACTCACTAGGTGGCGCTGTTGCTGCTCTTGCTGGACTTGATCTTAAATTACTTGGATACGAACCTATCGTAACAAC | 67 | 41 |  |
| BCDO dsRNA: long dsRNA targeting G. orontii MGH1 BCDO (target SEQ ID NO:145) (nucleic acid, misc_feature 1..267: note = Inhibitory double stranded RNA; listed as RNA) ACTGCTCATAGTAATCCTATCCTATTTGCCCGGCTCGACTCAGGTGATCAAAAGGATTAGTGTAGCTAACACCAATATCTTATACCATGATGGACGGGCTTTGGCGACCTGCGAAAGTGGCCCACCAATGAGAGTTGTTCTCCCTCATCTGGATACAGTCGGTTGGTTCGATGGGCTGAAGGTAGGGGGAGAAAAGGCTACCGATGAATCGGACGGTCAATCCTTTGCGAAAGAAGGAACCTTTAATGTATTGGATGGACGGACAAC | 54 | 50 |  |
| APC1 dsRNA: dsRNA against G. orontii APC1, Anaphase promoting complex/20S cyclosome subunit (target SEQ ID NO:163) (nucleic acid, misc_feature 1..269: note = Inhibitory double stranded RNA; listed as RNA) AGATTGGTATTATCTCGCCTGAATATGCAACGTTTAGAAGTTCTATTCAGACAAAGCCGACTCTTAATCAACGCAAGGTTTTTACGGTGGCGCCGCCCTTGTGCGCTTCTGACGATGTACAGGAGAATTCTTGTATTATTTGTATCCTTGATCCTAATGAAAAGAAACTTATTACTGTAAATTTAAATATCAAGGCCTCGGAGCAAAAAAGTGAACTCGCAAAATCGGAAAATCTAAAATCTAAGAAAGAGGCAACTACAGTGTCACTT |  |  | reduction in spore production (assay format not stated): 48% |
| 2 (nucleic acid, listed as Golovinomyces orontii, listed as DNA) ATGTCTAGGCATACATCTGCATTTTTCGTTCTCTTTCCTACATTATTCGTCATATTAGCCAGTGCCTATCAATCACACTATGGCTCATCCTATCATCAGCAAGAGTCTCTTCAATCTGACGCACAATGGAATAGCAATATCTCTGATACTTTATTCCTGGAGCTAGAGGAACTAGCTCGTATCGTTGATATTGCTTACTGTGTTGGTACAACAGGAATCTCTAGCCCTTTTGTATGCGCCTCGCATTGCAGCGATTTTCCAAGCTTTGAACTCGTGGATACATTCCATTCAGGATACTTATTGGGCAATAGTTGCGGTTACATTGCACTTGATCATGCGTCGGACAATAACAGAGGACGAATACTGGTAGTTTTCAGGGGTACATACAGTATCGACGACACTATAATAGACCTGACTATGGTACCACAAAAGTACGCGCCATACCCGTCTCATCACGAAAATAATTTCAAAAGATCAGAATCAAGCCCACTTTTTAATTTAATACCTAGTAAAGAAATTCGGTCCCTCTTACGCTCATTCTCACGTATATTTCATCGTCGAAAAGGAAGTAGGCCAGAAAGACATATGCACTCTAACATTGAATGTACGAACTGCACTGTTCATATGGGATTTTGGACAAGCTACCAACAAATACGTCCTCATTTATTCTCCAAGATTAGTAGCCTTCGAAAAAAATTCCCTAACTATCGATTGGATTTAGTCGGACACTCACTAGGTGGCGCTGTTGCTGCTCTTGCTGGACTTGATCTTAAATTACTTGGATACGAACCTATCGTAACAACCTTTGGTGAGCCACGCGTTGGAAATACTGGATTCAGAGATTTCATGGATGCCACATTTAACCTACGCTCCCAGAACTCAGGGGGTCATTTAGACATGCCAAGCTGCAAAGATCACTATCGTAGAGTGACTCATACAAGTGATCCTATGCCATTACTACCGCCGCAAGATTTTGGCTATCGCCCACATGCTGGCGAGGTATTCATCTCAAAACGAGATCTTCCAGTGGCAATACAAGACGTTCGTCACTGTTTTGGTGACGATGATGTGAACTGTATCGAGGAAAGAGGAAACAATAGAGTTTGGACTGATTTATCTGAGACGTCGAAAATAAGAGCCGGCACCAAAGACTCCTTAGATGCCAGGGGTGGCGAATTGAAAAAACGAGATAGGGTACGATTACATCCTCCCCATCTTTGGCGACCCTTTCTAGCGCATCGTGACTATTTTTGGCGCCTAGGATTATGCGTTCCAGGAGATGATCCAACTGGTCAAGTAAGAGACGAGGTTTAG |  |  | G. orontii Spore Production on Arabidopsis, Detached Leaf Assay, % reduction [2]: 67%; G. orontii Spore Production on Arabidopsis, Whole Plant Assay, % reduction (topical dsRNA against G. orontii target (Gor Seq ID), whole plant assay, n>=3): 41% |
| LIP1 dsRNA: long dsRNA against G. orontii TAG lipase 1 (target SEQ ID NO:1) (nucleic acid, misc_feature 1..344: note = Inhibitory double stranded RNA; listed as RNA) ACCTCTGCTGGTTCTATCTCTGCTTTTAACTTATTAGTCGCCAAAGATGGTGCTTTATCTTATAATGGCAAACCGCTATTCCGTGCTGCTATTATGGACAGTGGTAGCATCGTGCCTACTGATGCGGTGAACTCCCCGAAGCCACAAAATGTTTTCGATCAAGTCGTGAGTGCTGGAGGCTGTAGTGAAGCATATGACAAAATTAGCTGTCTACGGAATCTCGACTACACCGAGTTTTTGTTCGCAAGTACATCAGTTCCTGGTCTATTTGACTACCAATCAGTAGCACTTTCATACATCCCGCGACCTGACGGTGATCTTTTGACCGCATCTATGGATGAATT | 51 | 22 |  |
| AATF dsRNA: long dsRNA against G. orontii apoptosis antagonizing transcription factor (target SEQ ID NO:92) (nucleic acid, misc_feature 1..284: note = Inhibitory double stranded RNA; listed as RNA) TCCGAAGGAGAGTATTCATCAGAAACTCAGGTTTCAGAATACTCGGACGATCAACTCAACTCTGATAATCTTGAAGATGAAGAATCTGATAGTGATGATGATGATGATATTGGAGATGAAAGAACCGAACGATCCGAAATTCAGAAAATCATGAAAGAAGATCAAAAGACCGTGGTATCAACAATATCTCAAGCAGTAAAAGCAGATGTTGAAAAGGGTAAAGCTGTCAAGGCTCAGCGAATGAGATTCGATTGTTTGTTAAATGTACGAATGGCAATGCAAAA | 32 | 21 |  |
| OEC60/OEC61 dsRNA: long dsRNA against G. orontii effector candidate 60/61 (target SEQ ID NO:122) (nucleic acid, misc_feature 1..202: note = Inhibitory double stranded RNA; listed as RNA) CACAAAATGGGCCAAATGGGAAATTGTCGAGCTAATTGTGATTGGAAACGAAGCCCTATTTAATGGCCATACTTCTCCAGATGAGCTCGCAAGATTTATTAGCTCAACCAGAAATACACTACGATCCTCTGGTTACAATGGACCTTGCACAACAGCTGAGCCTCTCAATATCTGGCAGCAAAGCTCGGATGTATTGTGTGGT |  |  | effect on spore production (A. thaliana whole plant assay): significantly reduced spore production |
| OEC14 dsRNA: long dsRNA against G. orontii effector candidate 14 (target SEQ ID NO:124) (nucleic acid, misc_feature 1..223: note = Inhibitory double stranded RNA; listed as RNA) CACAACAGCTCTCCTAATCTCTCCCTCCCTAGGAGTTAATTCAGCTCAGAACGGCGAAACTCCCGATGACGATTCATTAGGTTCTACGAAACACATGAACTTTGGCTCTGGTCTCTCTGAATTCAATGCTCATGAAGATATGTATGTTCCTGCCATGGATCTGAATGGGTTTAGAATAAAGCGACGACATTTTCAAAATGAAGGCTATTACTGCAGCAAATCG |  |  | effect on spore production (A. thaliana whole plant assay): significantly reduced spore production |
| 15 (nucleic acid, listed as Golovinomyces orontii, listed as DNA) CCTTTTGATTACTCCGCCCAACTTTTTTTTTTTAGGTTTTCAGTACTTCACCCTAGGAAGCTCCTCAATCATCATTTCTGAAAAGATGTCATCGTCTCTAGACCAACTTAAATCCACTGGAACTACTATTGTCTGTGATTCAGGTGATTTTGAATCAATTGGCAAATATAAACCTC |  |  | G. orontii Spore Production on Arabidopsis, Detached Leaf Assay, % reduction [2]: 38% |

Reference: US20260117244A1, “INHIBITORY RNA FOR THE CONTROL OF PHYTOPATHOGENS” (priority 2021, published 2026)
